This experiment concerns the target T1, Wild-type CHIPS1-121 (Chemotaxis Inhibitory Protein of Staphylococcus aureus) (Staphylococcus aureus, UniProt A6QIG7 29-149).
T1 construct: His tag cleaved off with enterokinase; also called CHIPSWT
Briefly: flow cytometry of gated blood neutrophils after iv CHIPS, stained with rabbit anti-CHIPS IgG and FITC goat anti-rabbit; the staining does not separate C5aR-bound from FPR-bound CHIPS.

B1: human C5a receptor (C5aR) (receptor)
chain: MDSFNYTTPDYGHYDDKDTLDLNTPVDKTSNTLRVPDILALVIFAVVFLVGVLGNALVVWVTAFEAKRTINAIWFLNLAVADFLSCLALPILFTSIVQHHHWPFGGAACSILPSLILLNMYASILLLATISADRFLLVFKPIWCQNFRGAGLAWIACAVAWGLALLLTIPSFLYRVVREEYFPPKVLCGVDYSHDKRRERAVAIVRLVLGFLWPLLTLTICYTFILLRTWSRRATRSTKTLKVVVAVVASFFIFWLPYQVTGIMMSFLEPSSPTFLLLKKLDSLCVSFAYINCCINPIIYVVAGQGFQGRLRKSLPSLLRNVLTEESVVRESKSFTRSTVDTMAQKTQAV
notes: whole, on cells; also called CD88
With B1, the binding result was “binds”.

B2: formylated peptide receptor (FPR) (receptor)
chain: METNSSLPTNISGGTPAVSAGYLFLDIITYLVFAVTFVLGVLGNGLVIWVAGFRMTHTVTTISYLNLAVADFCFTSTLPFFMVRKAMGGHWPFGWFLCKFVFTIVDINLFGSVFLIALIALDRCVCVLHPVWTQNHRTVSLAKKVIIGPWVMALLLTLPVIIRVTTVPGKTGTVACTFNFSPWTNDPKERINVAVAMLTVRGIIRFIIGFSAPMSIVAVSYGLIATKIHKQGLIKSSRPLRVLSFVAAAFFLCWSPYQVVALIATVRIRELLQGMYKEIGIAVDVTSALAFFNSCLNPMLYVFMGQDFRERLIHALPASLERALTEDSTQTSDTATNSTLPSAEVELQAK
notes: whole, on cells
With B2, the binding result is “binds”.

For the origin of these results see patent publication US20120071394A1 (ALLIGATOR BIOSCIENCE, published 2012).
